B1: HDV Ribozyme (parent)
chain: GGCCGGCAUGGUCCCAGCCUCCUCGCUGGCGCCGGCUGGGCAACAUUCCGAGGGGACCGUCCCCUCGGUAAUGGCGAAUGGGACCCA

Variants of: B1
Assay: self-cleavage, relative activity (ratio to wild type); higher = more cleavage; co-transcriptional

Row | Variant | self-cleavage
1 | GGCGGGCAUGGUCCCAGCCUUCUCGCUGGCGCCGGCUGGGCAACAUUCCGAGGGGACCGUCCCCUCGGUAAUGGCGAAUGGGACCCA [C4G C21U] | 0
2 | GGCGGGCAUGGUCCCAGCCUACUCGCUGGCGCCGGCUGGGCAACAUUCCGAGGGGACCGUCCCCUCGGUAAUGGCGAAUGGGACCCA [C4G C21A] | 0.0292
3 | GGCGGGCAUGGUCCCAGCCUCCUCGCUGGCGCCGGCUGGGCAACAUUCCGAGGGGACCGUCCGCUCGGUAAUGGCGAAUGGGACCCA [C4G C63G] | 0.0396
4 | GGCGGGCAUGGUCCCAGCCUCCUCGCUGGCGCCGGCUGGGCAACAUUCCGAGGGGACCGUCCUCUCGGUAAUGGCGAAUGGGACCCA [C4G C63U] | 0.249
5 | GGCGGGCAUGGUCCCAGCCUCCUCGCUGGCGCCGGCUGGGCAACAUUCCGAGGGGACCGUCCACUCGGUAAUGGCGAAUGGGACCCA [C4G C63A] | 0.177
6 | GGCGGGCAUGGUCCCAGCCUCCUCGCUGGCGCCGGCUGGGCAGCAUUCCGAGGGGACCGUCCCCUCGGUAAUGGCGAAUGGGACCCA [C4G A43G] | 0
7 | GGCGGGCAUGGUCCCAGCCUCCUCGCUGGCGCCGGCUGGGCACCAUUCCGAGGGGACCGUCCCCUCGGUAAUGGCGAAUGGGACCCA [C4G A43C] | 0.0519
8 | GGCGGGCAUGGUCCAAGCCUCCUCGCUGGCGCCGGCUGGGCAACAUUCCGAGGGGACCGUCCCCUCGGUAAUGGCGAAUGGGACCCA [C4G C15A] | 0.142
9 | GGCGGGCAUGGUCCUAGCCUCCUCGCUGGCGCCGGCUGGGCAACAUUCCGAGGGGACCGUCCCCUCGGUAAUGGCGAAUGGGACCCA [C4G C15U] | 0.277
10 | GGCGGGCAUGGUCCCAGCCUCCUCGCUGGCGCCGGCUGGGCAACAUUCCGAGGGGACCGUCCCCUCGGUAAUGGCGAAUGGGAUCCA [C4G C84U] | 0.249
11 | GGCGGGCAUGGUCCCAGCCUCCUCGCUGGCGCCGGCUGGGCAACAUUCCGAGGGGACCGUCCCCUCGGUAAUGGCGAAUGGGAGCCA [C4G C84G] | 0
12 | GGCGGGCAUGGUCCCAGCCUCCUCGCUGGCGCCGGCUGGGCAACAUUCCGAGGGGACCGUCCCCUCGGUAAUGGCGAAUGGGACACA [C4G C85A] | 0.435
13 | GGCGGGCAUGGUCCCAGCCUCCUCGCUGGCGCCGGCUGGGCAACAUUCCGAGGGGACCGUCCCCUCGGUAAUGGCGAAUGGGACUCA [C4G C85U] | 0.306
14 | GGCGGGCAUGGUCCCAGCCUCCUCGCUGGCGCCGGCUGGGCAACAUUCUGAGGGGACCGUCCCCUCGGUAAUGGCGAAUGGGACCCA [C4G C49U] | 0.612
15 | GGCGGGCAUGGUCCCAGCCUCCUCGCUGGCGCCGGCUGGGCAACAUUCGGAGGGGACCGUCCCCUCGGUAAUGGCGAAUGGGACCCA [C4G C49G] | 0.504
16 | GGCGGGCAUGGUCCCAGCCUCCUAGCUGGCGCCGGCUGGGCAACAUUCCGAGGGGACCGUCCCCUCGGUAAUGGCGAAUGGGACCCA [C4G C24A] | 0.102

Row | Variant | self-cleavage
17 | GGCGGGCAUGGUCCCAGCCUCCUGGCUGGCGCCGGCUGGGCAACAUUCCGAGGGGACCGUCCCCUCGGUAAUGGCGAAUGGGACCCA [C4G C24G] | 0.0426
18 | GGCGGGCAUGGUCCCAGCCUCCUCGCUGGCGCCGGCUGGGCAACAUUCCGAGGGGACCGUCCCCUCGGUAAUGGCGGAUGGGACCCA [C4G A77G] | 0.172
19 | GGCGGGCAUGGUCCCAGCCUCCUCGCUGGCGCCGGCUGGGCAACAUUCCGUGGGGACCGUCCCCUCGGUAAUGGCGAAUGGGACCCA [C4G A51U] | 0.284
20 | GGCGGGCAUGGUCCCAGCCUCCUCGCUGGCGCCGGCUGGGCAACAUUCCGCGGGGACCGUCCCCUCGGUAAUGGCGAAUGGGACCCA [C4G A51C] | 0.458
21 | GGCGGGCAUGGUCCCAGCCUCCUCGCUGGCGCCGGCUGGGCAACAUUCCGAGGGGACCGUCCCCUCGGUGAUGGCGAAUGGGACCCA [C4G A70G] | 0.59
22 | GGCGGGCAUGGUCUCAGCCUCCUCGCUGGCGCCGGCUGGGCAACAUUCCGAGGGGACCGUCCCCUCGGUAAUGGCGAAUGGGACCCA [C4G C14U] | 0.462
23 | GGCGGGCAUGGUCACAGCCUCCUCGCUGGCGCCGGCUGGGCAACAUUCCGAGGGGACCGUCCCCUCGGUAAUGGCGAAUGGGACCCA [C4G C14A] | 0.0852
24 | GGCGGGCAUGGUCGCAGCCUCCUCGCUGGCGCCGGCUGGGCAACAUUCCGAGGGGACCGUCCCCUCGGUAAUGGCGAAUGGGACCCA [C4G C14G] | 0
25 | GGCGGGCAUGGUCCCAGCCUCCUCGCUGGCGCCGGCUGGGCGACAUUCCGAGGGGACCGUCCCCUCGGUAAUGGCGAAUGGGACCCA [C4G A42G] | 0
26 | GGCGGGCAUGGUCCCAGUCUCCUCGCUGGCGCCGGCUGGGCAACAUUCCGAGGGGACCGUCCCCUCGGUAAUGGCGAAUGGGACCCA [C4G C18U] | 0.0282
27 | GGCGGGCAUGGUCCCAGCCUCCUCGCUGGCGCCGGCUGGGCAACAUUCCGAGGGGACUGUCCCCUCGGUAAUGGCGAAUGGGACCCA [C4G C58U] | 0.404
28 | GGCGGGCAUGGUCCCAGCCUCCUCGCUGGCGCCGGCUGGGCAACAUUCCGAGGGGACGGUCCCCUCGGUAAUGGCGAAUGGGACCCA [C4G C58G] | 0.289
29 | GGCGGGCAUGGUCCCAGCCUCCUCGCUGGCGCCGGCUGGGCAACAUUCCGAGGGGACCGUCCCAUCGGUAAUGGCGAAUGGGACCCA [C4G C64A] | 0.219
30 | GGCGGGCAUGGUCCCAGCCUCCUCGCUGGCGCCGGAUGGGCAACAUUCCGAGGGGACCGUCCCCUCGGUAAUGGCGAAUGGGACCCA [C4G C36A] | 0.0241
31 | GGCGGGCAUGGUCCCAGCCUCCUCGCUGGCGCCGGCUGGGCAACAUUCCGAGGGGACCGUCCCCUCGGUACUGGCGAAUGGGACCCA [C4G A71C] | 0.192
32 | GGCGGGCAUGGUCCCAGCCUCCUCGCUGGCGCCGGCUGGGCAACAUUCCGAGGGGACCGUCCCCUCGGUAGUGGCGAAUGGGACCCA [C4G A71G] | 0.277

— the RNAGym collection of RNA variant scans (doi:10.7554/elife.80360)
